Source: publication PMC2568806, “Two Estrogen Response Element Sequences Near the PCNA Gene Are Not Responsible for Its Estrogen-Enhanced Expression in MCF7 Cells”

Tests used:
[1] = target: T1, recombinant estrogen receptor alpha (rERα) (UniProt P03372 1-595); assay: EMSA, supershift; HESC nuclear extract; weaker than consensus ERE, stronger than PCNA-ERE2; 25 mM Tris-HCl pH 8.0, 50 mM KCl, 6.25 mM MgCl2, 10% glycerol, 0.5 mM DTT; 5 µg HESC nuclear extract + 170 nM rERα; 5% acrylamide gel in TBE; temperature not stated; settings: protein: commercial; chain copies: 2; blunt
[2] = target: T1, recombinant estrogen receptor alpha …; assay: EMSA, supershift; HESC nuclear extract; 25 mM Tris-HCl pH 8.0, 50 mM KCl, 6.25 mM MgCl2, 10% glycerol, 0.5 mM DTT; 5 µg HESC nuclear extract + 170 nM rERα; 5% acrylamide gel in TBE; temperature not stated; settings: protein: commercial; chain copies: 2; label: 32P 5' end; blunt

T1 sequence (P03372 whole entry): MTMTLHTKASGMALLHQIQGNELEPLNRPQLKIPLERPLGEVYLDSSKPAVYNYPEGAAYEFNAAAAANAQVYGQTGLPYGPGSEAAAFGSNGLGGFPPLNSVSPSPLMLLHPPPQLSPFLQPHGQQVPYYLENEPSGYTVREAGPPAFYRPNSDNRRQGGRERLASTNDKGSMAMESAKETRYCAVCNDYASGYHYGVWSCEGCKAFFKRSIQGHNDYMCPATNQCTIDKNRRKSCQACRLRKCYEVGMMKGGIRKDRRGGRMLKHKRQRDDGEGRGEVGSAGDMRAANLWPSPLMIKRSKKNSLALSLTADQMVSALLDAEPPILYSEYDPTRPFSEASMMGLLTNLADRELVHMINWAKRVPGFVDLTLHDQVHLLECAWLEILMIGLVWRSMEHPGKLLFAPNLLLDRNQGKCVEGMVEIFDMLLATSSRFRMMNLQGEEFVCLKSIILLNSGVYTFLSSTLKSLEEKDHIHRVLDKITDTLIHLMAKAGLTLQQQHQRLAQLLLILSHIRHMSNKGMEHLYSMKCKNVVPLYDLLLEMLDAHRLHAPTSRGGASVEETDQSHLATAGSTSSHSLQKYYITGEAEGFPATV

Binder | binding result [1] | binding result [2]
PCNA-ERE1 (dsDNA) DNA 1: GGGAGTTTGAGGCCAGCCTGACCAACATTG DNA 2: CAATGTTGGTCAGGCTGGCCTCAAACTCCC | binds | 
consensus ERE (dsDNA) DNA 1: GGATCTAGGTCACTGTGACCCCGGATC DNA 2: GATCCGGGGTCACAGTGACCTAGATCC |  | binds
